# In publication PMC4174003 (2014):
# T1: PCSK9 (Mus musculus, UniProt Q80W65)
# T1 chain: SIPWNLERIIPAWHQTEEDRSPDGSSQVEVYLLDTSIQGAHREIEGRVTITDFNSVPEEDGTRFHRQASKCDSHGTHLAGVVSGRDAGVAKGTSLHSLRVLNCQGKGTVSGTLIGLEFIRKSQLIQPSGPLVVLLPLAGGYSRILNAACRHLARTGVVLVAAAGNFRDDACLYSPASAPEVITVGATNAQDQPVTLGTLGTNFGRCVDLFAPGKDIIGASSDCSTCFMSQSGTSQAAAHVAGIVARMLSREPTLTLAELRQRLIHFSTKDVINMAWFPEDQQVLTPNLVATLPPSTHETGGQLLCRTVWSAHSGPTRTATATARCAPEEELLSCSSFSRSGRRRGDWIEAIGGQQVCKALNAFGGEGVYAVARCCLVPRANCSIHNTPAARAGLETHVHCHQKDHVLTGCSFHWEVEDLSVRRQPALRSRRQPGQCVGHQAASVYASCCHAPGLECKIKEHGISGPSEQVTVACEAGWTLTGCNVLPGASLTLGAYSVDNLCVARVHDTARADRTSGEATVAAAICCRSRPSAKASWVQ
# Key:
# PCSK9 [1] = biological target: T1, PCSK9; experiment: SPR
# PCSK9 [2] = biological target: PCSK9 (Homo sapiens, UniProt Q8NBP7); experiment: SPR
# Sequence of PCSK9 (Homo sapiens, UniProt Q8NBP7) (Q8NBP7 153-692): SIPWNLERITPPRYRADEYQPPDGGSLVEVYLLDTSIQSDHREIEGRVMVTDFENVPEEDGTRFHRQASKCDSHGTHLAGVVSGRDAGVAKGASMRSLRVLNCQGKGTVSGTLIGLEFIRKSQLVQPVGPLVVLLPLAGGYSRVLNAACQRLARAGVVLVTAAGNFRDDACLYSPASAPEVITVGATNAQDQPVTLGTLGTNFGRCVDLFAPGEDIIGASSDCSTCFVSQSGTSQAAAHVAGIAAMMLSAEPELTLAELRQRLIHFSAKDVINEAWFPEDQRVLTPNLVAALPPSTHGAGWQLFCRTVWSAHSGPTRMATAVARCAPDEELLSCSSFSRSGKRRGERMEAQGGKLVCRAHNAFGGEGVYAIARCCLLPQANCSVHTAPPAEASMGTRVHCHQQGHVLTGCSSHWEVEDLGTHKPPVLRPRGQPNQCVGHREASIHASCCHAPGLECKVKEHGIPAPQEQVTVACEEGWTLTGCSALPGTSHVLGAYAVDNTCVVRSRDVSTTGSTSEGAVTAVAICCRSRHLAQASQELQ
binder,measurement,setting,value
"alirocumab (antibody, V domains shown) VH: EVQLVESGGGLVQPGGSLRLSCAASGFTFNNYAMNWVRQAPGKGLDWVSTISGSGGTTNYADSVKGRFIISRDSSKHTLYLQMNSLRAEDTAVYYCAKDSNWGNFDLWGRGTLVTVSS VL: not shown",Kd,PCSK9 [1],2.6 nM
same,Kd,PCSK9 [2],0.58 nM
